Test results taken from US8173771B2, “Humanin receptor or humanin-like polypeptide receptor” (Keio Univeristy, priority 2005, dated 2012).

Target: T1, G-CSFR/gp130 chimera proteins (Homo sapiens, UniProt P40189+Q99062)
T1 construct: the extracellular domain of the human G-CSF receptor fused to the full transmembrane domain; expressed in transfected cells; host or cells: F11 cells
T1 sequence (Q99062+P40189 with tags, fused parts or gaps): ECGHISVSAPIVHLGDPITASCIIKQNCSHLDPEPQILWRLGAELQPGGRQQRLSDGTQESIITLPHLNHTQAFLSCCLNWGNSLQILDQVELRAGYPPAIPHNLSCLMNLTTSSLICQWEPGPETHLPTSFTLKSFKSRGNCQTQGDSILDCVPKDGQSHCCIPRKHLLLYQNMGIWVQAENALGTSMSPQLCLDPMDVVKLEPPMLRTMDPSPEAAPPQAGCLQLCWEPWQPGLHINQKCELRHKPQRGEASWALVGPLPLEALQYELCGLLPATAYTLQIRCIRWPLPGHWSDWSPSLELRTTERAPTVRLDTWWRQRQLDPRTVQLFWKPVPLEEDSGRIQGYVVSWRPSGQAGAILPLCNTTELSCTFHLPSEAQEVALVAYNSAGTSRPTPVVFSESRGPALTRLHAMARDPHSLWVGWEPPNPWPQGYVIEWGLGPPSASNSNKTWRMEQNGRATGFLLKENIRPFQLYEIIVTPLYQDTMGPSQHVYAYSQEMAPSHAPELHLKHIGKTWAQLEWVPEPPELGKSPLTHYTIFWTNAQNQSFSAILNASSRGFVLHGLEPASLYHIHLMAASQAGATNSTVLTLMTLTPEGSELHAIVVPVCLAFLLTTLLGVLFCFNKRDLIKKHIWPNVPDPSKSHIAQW
Assay: G-CSF stimulation of G-CSFR/gp130 chimera proteins in F11 cells, cell mortality by Trypan blue exclusion
Type: cell-based
Conditions: 100 nM; G-25 expressed
Procedure: B) F11 cells were transfected with 0.5 μg of the pcDNA3 vector or pcDNA3-APP in association with 0.5 μg of the pEFBos vector or the pEFBos vectors encoding the extracellular domain of the human G-CSF receptor fused to the full transmembrane domain and a C-terminally truncated intracytoplasmic domain of gp130 (named “G-CSFR/gp130”). G-CSFR/gp130 (277) contains the full intracytoplasmic domain of gp130 corresponding to amino acids 1-277, while G-CSFR/gp130 (25), (68), and (133) contain the intracytoplasmic domains corresponding to amino acids 1-25, 1-68, and 1-133, respectively. At 24 hr after transfection, the cells were added with indicated amounts of human G-CSF. Cell mortality was determined by Trypan blue exclusion assay at 72 hr after transfection. The results of immunoblot analysis of the expression of […] are shown in photos.
C) Instead of the pcDNA3-V6421-APP vector, pcDNA3-K595 N/M596L-APP (NL-APP), M146L-PS1 and N141-I-PS2 vectors were used to do the same experiments as in FIG. 2A. The results of immunoblot analysis of the expression of NL-APP, M146L-PS1 and N141-I-PS2 are shown in photos.
D) F11 cells were transfected with 0.5 μg of the pEFBos vector or pEF-G85R-SOD1 in association with 0.5 μg of the pEFBos vector or each pEFBos vector encoding G-CSFR/gp130 (277) or G-CSFR/gp130 (25). At 24 hr after transfection, the cells were added with indicated amounts of human G-CSF. Cell mortality was determined by Trypan blue exclusion assay at 72 hr after transfection. The results of the expression of G85R-SOD1, which were confirmed by the immunoblot analysis, are shown in photos.
Neurohybrid F11 cells and pcDNA3 vectors encoding V642I-APP, K595N/M596L-APP (NL-APP), M146L-PS1, and N141I-PS2 cDNA were prepared as already described (Hashimoto et al, 2000, 2001a, 2003). pCAG-human gp130 and pCAG-human gp130 ED (the extracellular domain of human gp130) were prepared as described (Kumanogoh et al., 1997). pcDNA3 vectors encoding the extracellular domain of the G-CSF receptor fused to the full-length transmembrane domain and various portions of the intracellular domains of human gp130, were prepared as described (Fukada et al, 1996). The intracellular domain of gp130 was C-terminally truncated. A chimera protein named G-277 contained a 277 amino acid-long full intracellular domain of gp130 (SEQ ID NO:35), while G-195, G-133, G-68, and G-25 contained the amino acids 1-195 (SEQ ID NO:36), 1-133 (SEQ ID NO:37), 1-68 (SEQ ID NO:38), and 1-25 (SEQ ID NO:39) intracellular portions, respectively. C-terminally myc-tagged human WSX-1 and myc-tagged mouse CREME9 cDNAs were amplified from human and mouse embryo cDNA (BioChain) by PCR using sets of sense primers and antisense primers: 5′-[…]-3′ (SEQ ID NO:3) and 5′-[…]-3′ (SEQ ID NO:4) for human WSX-1; 5′-[…]-3′ (SEQ ID NO:5); and 5′-[…]-3′ (SEQ ID NO:6) for mouse CREME9. Plasmids encoding C-terminally V5-tagged human CNTF-R (V %-CNTF-R) and rat IL-6R (pUCM18-rat IL-6R) were purchased from Invitrogen and American Culture Collection, respectively. A pEFBos vector comprising familial ALS (FALS) gene G85R-SOD1 was kindly provided by Dr. Shoji Tsuji. Cosmid of human wild […] was constructed by inserting a full-length gp130 into a SwaI site of pAxCAwt (TaKaRa).
The transfection procedures were as described (Hashimoto et al, 2000, 2001a, 2003). F11 cells, seeded at 7×10^4/well in 6-well dishes, were transfected with indicated vectors. Transfection efficiency in these protocols has been determined to be invariably around 70%. At 72 hrs after transfection, the Trypan blue exclusion assay and LDH assay were performed as a cell-death assay and the WST-8 assay was performed as cell-viability assays (Hashimoto et al, 2000, 2001a b, 2003). HN was added to the culture medium usually at 5 hrs after transfection, but in some cases at 24 hrs after transfection.

B1: G-CSF: human G-CSF, ligand stimulating G-CSFR/gp130 chimera proteins (protein, UniProt P09919 31-207, looked up)
Granulocyte …: TPLGPASSLPQSFLLKCLEQVRKIQGDGAALQEKLVSECATYKLCHPEELVLLGHSLGIPWAPLSSCPSQALQLAGCLSQLHSGLFLYQGLLQALEGISPELGPTLDTLQLDVADFATTIWQQMEELGMAPALQPTQGAMPAFASAFQRRAGGVLVASHLQSFLEVSYRVLRHLAQP
With B1 the “prevention of NL-APP-, M146L-PS1-, N141I-PS2-mediated neuronal cell death” value was “not”.
